# T1: 42-80 (C-terminal Lys-biotin)
# T1 construct: also called Biotin PSGL-1(42-80) peptide
# T1 peptide: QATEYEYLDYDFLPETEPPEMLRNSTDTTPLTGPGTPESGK
# T2: Biotin PSGL-1(42-62) D50A peptide (C-terminal Lys-biotin)
# T2 peptide: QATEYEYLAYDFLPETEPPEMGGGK
# T3: Biotin Y46,48,51(SO3) PSGL-1(42-62) peptide (human, sulfotyrosine at Y46, Y48 and Y51; C-terminal Lys-biotin)
# T3 construct: also called fully sulfated N-terminal PSGL-1 peptide
# T3 peptide: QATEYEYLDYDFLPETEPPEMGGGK
# T4: Biotin PSGL-1(42-62) E45A peptide (C-terminal Lys-biotin)
# T4 peptide: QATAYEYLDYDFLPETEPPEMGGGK
# T5: Biotin PSGL-1(42-62) Y46A peptide (C-terminal Lys-biotin)
# T5 peptide: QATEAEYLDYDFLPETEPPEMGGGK
# T6: Recombinant human PSGL-1(ECD)-hFc1 (R&D Systems, Cat. 3345-PS) (human, UniProt Q14242 42-305)
# T6 construct: Bought; Gln42-Val295 counted on AAC50061; also called PSGL-1-Fc; PSGL-1-hFc1 chimera; not shown: human IgG1 Fc, Pro100-Lys330
# T6 sequence: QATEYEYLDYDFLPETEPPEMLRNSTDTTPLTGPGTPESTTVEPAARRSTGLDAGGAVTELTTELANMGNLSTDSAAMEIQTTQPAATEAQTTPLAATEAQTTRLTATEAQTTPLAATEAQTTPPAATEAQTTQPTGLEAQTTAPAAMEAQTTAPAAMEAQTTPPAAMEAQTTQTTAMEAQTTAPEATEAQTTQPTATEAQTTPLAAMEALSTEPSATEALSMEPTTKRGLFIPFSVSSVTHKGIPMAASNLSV
# T7: Biotin sY51 PSGL-1(42-62) peptide (human, sulfotyrosine at Y51; C-terminal Lys-biotin)
# T7 construct: also called Y51(SO3) PSGL-1(42-62)
# T7 peptide: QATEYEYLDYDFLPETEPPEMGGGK
# T8: Biotin PSGL-1(42-62) E56A peptide (C-terminal Lys-biotin)
# T8 peptide: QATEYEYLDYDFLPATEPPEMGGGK
# T9: Biotin PSGL-1(105-125) peptide (human, N-terminal acetyl; C-terminal Lys-biotin)
# T9 peptide: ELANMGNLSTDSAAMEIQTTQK
# T10: Biotin PSGL-1(42-62) peptide, unmodified (human, C-terminal Lys-biotin)
# T10 construct: Residues 42-62 followed by GGGK-biotin; also called WT; wild-type
# T10 peptide: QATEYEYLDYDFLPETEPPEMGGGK
# T11: Biotin PSGL-1(290-310) peptide (human, N-terminal acetyl; C-terminal Lys-biotin)
# T11 peptide: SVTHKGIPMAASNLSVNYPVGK
# T12: 75-95 (N-terminal acetyl; C-terminal Lys-biotin)
# T12 construct: also called Biotin PSGL-1(75-95) peptide
# T12 peptide: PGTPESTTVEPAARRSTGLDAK
# Experiments:
# 42-80 [1] = target: T1, 42-80; test: ELISA, streptavidin-immobilized biotin peptide, 10 nM mAb [cont.]
# Method: (§1) A typical ELISA experiment involved binding of a single concentration or serially diluted mAb in assay buffer (3% BSA in PBS containing 0.05% Tween®20, pH 7.4) onto BSA blocked high binding microtiter plate half-wells (Corning Cat. #3690), which contained PSGL-1 protein or streptavidin-immobilized biotin peptide. After incubation for 45 min. at 37° C., the plate was washed 3 times with wash buffer (PBS containing 0.05% Tween®20, pH 7.4), and an appropriate HRP-conjugated secondary antibody added (25 ul/well) (HRP goat anti-mouse or anti-human IgG). After 45 min. incubation at 37° C., the plate was washed and antibody bound to plate-immobilized target was determined at A450 nm using HRP substrate (3,3′5,5′-tetramethylbenzidine (TMB)). For each antibody, duplicate values were averaged and assay background subtracted.
# [2] = target: T2, Biotin PSGL-1(42-62) D50A peptide; test: ELISA, streptavidin-bound Ala peptide
# [3] = target: T3, Biotin Y46,48,51(SO3) PSGL-1(42-62) …; test: capture ELISA; against parent 18F02
# Method: A typical ELISA for N-terminal PSGL-1 reactive humanized mAbs binding to Y_{46,48,51}(SO₃) PSGL-1₍₄₂₋₆₂₎ involved coating high binding half-well plates (Corning Cat. #3690) with 3 ug/mL/25 ul per well of the mAbs or with an isotype hG4 control in PBS, pH 7.4, overnight at 4° C. […] Biotinylated Y_{46,48,51}(SO₃) PSGL-1₍₄₂₋₆₂₎ was added (25 ul per well) in duplicate at 2.8 uM in assay buffer (blocking buffer containing 0.05% tween 20) and serially diluted into test and control (just blocked) wells, and the plate incubated for 45 min at 37° C. The plate was washed ×3 and an appropriate HRP-conjugated streptavidin was added (25 ul per well; Jackson Immunoresearch, Cat. #016-030-084) and the plate was incubated for 45 min at 37° C. […] For each antibody, an EC50 value was determined from sigmoidal fitted peptide titration curve.
# [4] = target: T4, Biotin PSGL-1(42-62) E45A peptide; test: ELISA, streptavidin-bound Ala peptide
# [5] = target: T5, Biotin PSGL-1(42-62) Y46A peptide; test: ELISA, streptavidin-bound Ala peptide
# [6] = target: T6, Recombinant human PSGL-1(ECD)-hFc1 (R&D …); test: ELISA, plate-bound target
# Method in brief: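 Direct format: anti-PSGL-1 mAb at a single concentration (2–500 nM) or serially diluted (0.002–100 nM) on immobilized target, detected with HRP anti-IgG and TMB at A450; 45 min steps at 37° C. Capture format: coated mAb (3 ug/mL) binds biotinylated unmodified or sulfotyrosine peptide (3 nM–3 uM), detected with HRP-streptavidin.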
# [7] = target: T7, Biotin sY51 PSGL-1(42-62) peptide; test: ELISA, plate-bound peptide
# [8] = target: T8, Biotin PSGL-1(42-62) E56A peptide; test: ELISA, streptavidin-bound Ala peptide
# [9] = target: T9, Biotin PSGL-1(105-125) peptide; test: ELISA, plate-bound peptide or protein
# Method: as §1
# 42-80 [10] = target: T1, 42-80; test: ELISA, streptavidin-immobilized biotin peptide
# Method: as §1
# [11] = target: T10, Biotin PSGL-1(42-62) peptide, unmodified; test: ELISA, streptavidin-immobilized biotin peptide
# Method: as §1
# [12] = target: T11, Biotin PSGL-1(290-310) peptide; test: ELISA, streptavidin-immobilized biotin peptide
# Method: as §1
# 75-95 = target: T12, 75-95; test: ELISA, streptavidin-immobilized biotin peptide [cont.]
# Method: as §1
binder,measurement,setting,value
"18F02 (antibody, V domains shown, From mouse immunisation; only variable domains given) VH: QVQLQQPGAELVKPGASVKLSCKASGYTFTSYWMHWVKQRPGQGLEWIGMIHPNSGRTNYNEKFKSKATLTVDKSSSTAYMQLSSLTSEDSAVYYCARSDYWGQGTTLTVSS VL: DIVMTQAAFSNPVTLGTSASISCRSSKSLLHSDGITYLYWFLQRPGQSPQLLIYRMSNLASGVPDRFSGSGSGTDFTLRISRVEAEDVGVYYCAQMLEFPRTFGGGTKLEIK",binding result,42-80 [1],binds
same,EC50,[2],4.27 nM
same,N-term peptide EC50 (normalized),[3],1 fold
"16L15 (antibody, V domains shown, From mouse immunisation; only variable domains given) VH: DVKLVESGGGLVKLGGSLKLSCAASGFTFSSYYMSWVRQTPEKRLEWVATISNGGGSTYYPDSVKDRFTISRDNAKNTLYLQMSSLNSEDTAVYYCAKPLYYSNPWFAYWGQGTLVTVSA VL: DVLLTQTPLSLPVSLGDQASISCRSSQSIVHSNGNTYLEWYLQKPGQSPKLLIYKVSNRFSGVPDRFSGSGSGTDFTLKISRVEAEDLGVYYCFQGSHVPRTFGGGTKLEIK",EC50,[4],5.34 nM
same,EC50,[5],4.44 nM
"20I15 (antibody, V domains shown, From mouse immunisation; only variable domains given; also called 20115) VH: EVKLVESGGGLVQPGGSLSLSCAASGFTFTDYYMSWVRQPPGKALEWLGFIRNKANGYTTEYSASVKGRFTISRDNSQSILYLQMNALRAEDSATYYCARTYLRRGYFDVWGTGTTVTVSS VL: DIVLTQSPASLAVSLGQRATISCRASKSVSTSGYSYMHWFQQKPGQPPKLLIYLASNLESGVPARFSGSGSGTDFTLNIHPVEEEDAATYYCQHSRELPLTFGAGTKLELK",EC50,[6],0.26 nM
same,fold weaker binding than to the peptide with all 3 sulfated tyrosines,[7],~300 fold
"43B6 (antibody, V domains shown, Control anti-PSGL-1 mAb, recombinant; only variable domains given; also called 43B3) VH: EVQLQQSGPDLVKPGALVKISCKASGYSFTAYYIHWVKQSHGKSLEWIGRVNPNTGGTSYNPKFKGKAILNVDKSSSTAYMELRSLTSEDSAVYYCARSGSPYYRYDDWGQGTTLTVSS VL: ENVLTQSPAIMSASPGEKVTMTCRASSTVNSTYLHWFQQKSGASPKLWIYGSSNLASGVPARFSGSGSGTSYSLTISSVEAEDAATYYCQQYSGYPLTFGAGTTLELK",EC50,[8],4.25 nM
"16E17 (antibody, V domains shown, From mouse immunisation; only variable domains given) VH: QIQLVQSGPELKKPGETVKISCKASGYAFTTYGMSWVKQAPGKGLKWMGWINTYSGVPKYADDFKGRFAFSLETSASTAYLHINNLKNEDTATYFCGRHYYGSSYFDYWGQGTTLTVSS VL: not shown",EC50,[9],26.7 nM
same,binding result,42-80 [10],no binding (tested: 10 nM)
same,binding result,[11],no binding (tested: 10 nM)
same,binding result,[12],no binding (tested: 10 nM)
"18K07 (antibody, V domains shown, From mouse immunisation; only variable domains given) VH: QIQLVQSGPELKKPGETVKISCEASGYTFTTYGMNWVKQAPGKGLKWMGWINTYSGVPTYADDFQGRFAFSVETSATTAYLQINNLKNEDAATYFCARSDDTYYGFAYWGQGTLVTVSA VL: not shown",binding result,75-95,no binding (tested: 10 nM)

# Source: patent US20220396632A1 (VERSEAU THERAPEUTICS, published 2022)
